B1: AM22 (antibody, V domains shown)
VH: QVQLVQSGAEVKKPGATVKVSCKISGHTLIKLSIHWVRQAPGKGLEWMGGYEGEVDEIFYAQKFQHRLTVIADTATDTVYMELGRLTSDDTAVYFCGTLGVTVTEAGLGIDDYWGQGTLVTVSS
VL: EIVLTQSPGTLSLSPGERATLSCRASQIVSRNHLAWYQQKPGQAPRLLIFGASSRATGIPVRFSGSGSGTDFTLTINGLAPEDFAVYYCLSSDSSIFTFGPGTKVDFK
B2: MPE8 (antibody, V domains shown)
VH: EVQLVESGGGLVKPGGSLRLSCAASGFTFSSYSMNWVRQAPGKGLEWVSSISASSSYSDYADSAKGRFTISRDNAKTSLFLQMNSLRAEDTAIYFCARARATGYSSITPYFDIWGQGTLVTVSS
VL: QSVVTQTPSVSGAPGQRVTISCTGSSSNIGAGYDVHWYQQLPGTAPKLLIYDNNNRPSGVPDRFSASKSGTSASLAITGLQAEDEADYYCQSYDRNLSGVFGTGTKVTVL
notes: also called MPEG

Tests used:
Assay in all cases: BLI (Octet), F on anti-HIS tip, 20 nM mAb
[1] = target: RSV F protein mutant pXCS897 (RSV A2, UniProt P03420 26-109)
[2] = target: RSV F protein mutant pXCS839 (RSV A2, UniProt P03420 26-109)
[3] = target: RSV F protein mutant pXCS809 (RSV A2, UniProt P03420 26-109)
[4] = target: DS-Cav1 (UniProt P03420 26-513)
[5] = target: RSV F protein mutant pXCS898 (RSV A2, UniProt P03420 26-109)
[6] = target: RSV F protein mutant pXCS876 (RSV A2, UniProt P03420 26-109)
[7] = target: RSV F protein mutant pXCS874 (RSV A2, UniProt P03420 26-109)
[8] = target: RSV F protein mutant pXCS877 (RSV A2, UniProt P03420 26-109)
[9] = target: RSV F protein mutant pXCS805 (RSV A2, UniProt P03420 26-109)
[10] = target: RSV F protein mutant pXCS804 (RSV A2, UniProt P03420 26-109)
[11] = target: RSV F protein mutant pXCS811 (RSV A2, UniProt P03420 26-109)
[12] = target: RSV F protein mutant pXCS878 (RSV A2, UniProt P03420 26-109)
[13] = target: RSV F protein mutant pXCS873 (RSV A2, UniProt P03420 26-109)
[14] = target: RSV F protein mutant pXCS879 (RSV A2, UniProt P03420 26-109)
[15] = target: RSV F protein mutant pXCS776 (RSV A2, UniProt P03420 26-109)
[16] = target: RSV F protein mutant pXCS749 (RSV A2, UniProt P03420 26-109)

Row | Binder | Response (nm shift) [1] | Response (nm shift) [2] | Response (nm shift) [3] | Response (nm shift) [4] | Response (nm shift) [5] | Response (nm shift) [6] | Response (nm shift) [7] | Response (nm shift) [8] | Response (nm shift) [9] | Response (nm shift) [10] | Response (nm shift) [11] | Response (nm shift) [12] | Response (nm shift) [13] | Response (nm shift) [14] | Response (nm shift) [15] | Response (nm shift) [16]
1 | B1 | 0.406 nm | 0.39 nm | 0.185 nm | 0.469 nm | 0.416 nm | 0.268 nm | 0.444 nm | 0.213 nm | 0.173 nm | 0.267 nm | 0.322 nm | 0.324 nm | 0.192 nm | 0.351 nm | – | –
2 | B2 | – | – | – | – | – | – | – | – | – | – | – | – | – | – | 0.127 nm | 0.206 nm
